Source: publication PMC11501004

Target: GST-LEA12^OR (Oryza rufipogon Griff.)
Test: MST
Conditions: scale: fold

B1: MBP-OsSAPK10 (natural protein)
chain: MDRAALTVGPGMDMPIMHDGDRYELVRDIGSGNFGVARLMRSRADGQLVAVKYIERGDKIDENVQREIINHRSLRHPNIIRFKEVILTPTHLAIVMEYASGGELFERICNAGRFSEDEARFFFQQLISGVSYCHSMQVCHRDLKLENTLLDGSTAPRLKICDFGYSKSSVLHSQPKSTVGTPAYIAPEVLLKKEYDGKIADVWSCGVTLYVMLVGAYPFEDPDEPKNFRKTIQRILGVQYSIPDYVHISPECRDLIARIFVANPATRISIPEIRNHPWFLKNLPADLMDDSKMSSQYEEPEQPMQSMDEIMQILAEATIPAAGSGGINQFLNDGLDLDDDMEDLDSDPDLDVESSGEIVYAM
- Kd relative to that of LEA12^93-11: 0.143
